# Measured values: the nanobody polyreactivity screen of Harvey et al. (2022)
# Experiment: yeast display, Sf9 membrane polyspecificity reagent, FACS + sequencing; frameworks hold sequencing errors
# Method in brief: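 Sorting gates, low and high (top ~1%), were placed on anti-HA fluorescence to track expression and on streptavidin fluorescence to track reagent binding. A clone's polyreactivity label is taken from the gate it came out of. The reagent was 10% biotinylated, detergent-solubilized Sf9 membrane, applied for 1 hour at 4 °C to galactose-induced yeast display cells.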
row,Sequence,polyreactivity (PSR sort gate)
1,QVQLVESGGGLVQAGGSLRLSCAASGSTLIDYTMGWYRQAPGKERELVAAISSGGSTNYADSVKGRFTISRDNAKNTVYLQMNSLKPEDTAVYYCAKDHQRYFYGFWEHPRYDYWGQGTQVTVSS,high polyreactivity
2,QVQLVESGGGLVQAGGSLRLSCAASGSTLIEYAKGWYRQAPGKERELVARISKSGDSTYYADSVKGRFTISRDNAKNTVYLQMNSLKPEDTAVYYCAKYHRDGFYRSYWFRYDYWGQGTQVTVSS,low polyreactivity
3,QVQLVESGGGLVQAGGSLRLSCAASGSTLIWNVMGWYRQAPGKERELVATISSGGRTYYADSVKGRFTISRDNAKNTVYLQMNSLKPEDTAVYYCAARSRRGVSYRSYRSFDYWGQGTQVTVSS,high polyreactivity
4,QVQLVESGGGLVQAGGSLRLSCAASGSTLKYNAMGWYRQATGKERELVAAISTSGGNTYYADSVKGRFTISRDNAKNTVYLQMNSLKPEDPAVYYFAKVLGYYYYDYDSWGQGTQVTLSS,low polyreactivity
5,QVQLVESGGGLVQAGGSLRLSCAASGSTLKYYTMGWYRQAPGKERELVAAISWSGGRTYYADSVKGRFTISRDNAKNTVYLQMNCLKPEDTAVYYCAKYPGYRSSGRISYEYDYWGQGTQVTVSS,high polyreactivity
6,QVQLVESGGGLVQAGGSLRLSCAASGSTLKYYTMGWYRQAPGKERELVAAISWSGGRTYYADSVKGRFTISRDNAKNTVYLQMNSLKPEDTAVYYCNARRTFPRYDRKYESWGQGTQVTVSS,high polyreactivity
7,QVQLVESGGGLVQAGGSLRLSCAASGSTLNVNAMGWYRQAPGKERELVAAITSGGSTYYADSVKGRFTISRDNAKNTVYLQMNSLKPEDTAVYYCNKRRSWRPTYPFGGSGFYYWGQGTQVTVSS,low polyreactivity
8,QVQLVESGGGLVQAGGSLRLSCAASGSTLNYYAMAWYRQAPGKEMELVAAITWSGGSTSYADSVKGRFTISRDNAKNTVYLQMNSLKPEDTAVYYCATDFPTVQLYDTDWLSSDMGYWGQGTQVTVSW,low polyreactivity
9,QVQLVESGGGLVQAGGSLRLSCAASGSTLNYYAMGWYRQAPGKERELVAAITWSGGSTSYADSVKGRFTISRDNAKNTVYVQMNSLKPEDTAVYYGATDFPTVQLYDTDWLSSDMGYWGQGTQVTVSS,low polyreactivity
10,QVQLVESGGGLVQAGGSLRLSCAASGSTLNYYAMGWYRQAPGKEWELVAAITWSGGSTSYADSVKGRFTISRDNAKNTVYLQMNSLKPEDTAVYYCATDFPTVQLYDTDWLSSDMGYWGQGTQVTVSS,low polyreactivity
11,QVQLVESGGGLVQAGGSLRLSCAASGSTLPGNTMGWYRQAPGKERELVAAISKSGGTTYYADSVKGRFTISRDYAKNTVYLQMNSLKPEDTAVYYCAAKPWVWVYARYGKHPSYDYWGQGTQVTVSS,high polyreactivity
12,QVQLVESGGGLVQAGGSLRLSCAASGSTLPPNAMGWSRQAPGKERELVAAISYSGDSTHYADSVKGRFTISRDNAKNTVYLQMNSLKPEDTAVYYCYASSPGAVPVYDYDYWGQGTQVTVSS,low polyreactivity
13,QVQLVESGGGLVQAGGSLRLSCAASGSTLPRYTMGWYRQAPGKERELVAAISFSGSSTYYADSVKGRFTISRVNAKNTVYLQMNSLKPEDTAVYYCRYGYNYWGQGTQVTVSS,high polyreactivity
14,QVQLVESGGGLVQAGGSLRLSCAASGSTLPTNAMGWYRQAPGKERELVASNDQSGGSTYADSVKGRFTISRDNAKNTVYLQMNSLKPEDTAVYYCNARDSLRYYTYYFEYYRVGYEYWGQGTQVTVSS,high polyreactivity
15,QVQLVESGGGLVQAGGSLRLSCAASGSTLQSYAMGWYRQAPGKERELVAGIRISGGNTRYADSVKGRFTISRDNAKNTVYLQMNSLKPEDTAVYYCAALTGFYNLRPYGYWGQGTQVTVSS,high polyreactivity
16,QVQLVESGGGLVQAGGSLRLSCAASGSTLRGNAMGWYRQAPGKERELVAAISWSGGSTYYADSVKGRFTISRDNAKNTVYLQMNSLKPEDTAVYYRATASPSTRYGRLGDYWGQGTQVTVSS,low polyreactivity
17,QVQLVESGGGLVQAGGSLRLSCAASGSTLRPYAMGWYRQAPGKERELVAAISKSGASTYYADSVKGRFTISRDNAQNTVYLQMNSLKPEDTAVYYCNAGRGTGETLYGYDYWGQGTQVTVSS,high polyreactivity
18,QVQLVESGGGLVQAGGSLRLSCAASGSTLRPYAMGWYRQAPGKERELVAAISKSGASTYYADSVKGRVTISRDNANNTVYFQMNSLKPEDTAVNYCNAGRGTWETLYGYDYWGQGTQVTVSS,high polyreactivity
19,QVQLVESGGGLVQAGGSLRLSCAASGSTLRRYAMGWYRQAPGKEMELVAAISGSGDSTYYADSVKGRFTISRDNAKNTVYLQMNSLKPEDTAVYYCNAVYAFNGYDYWGQGTQVTVSS,low polyreactivity
20,QVQLVESGGGLVQAGGSLRLSCAASGSTLRRYAMGWYRQAPGKERELVAAITRGSSTTYADSVKGRFTISRDNAKNTVYLQMNSLKPEDTAVYYCNTYFSRNFDYWGQGTQVTVSS,high polyreactivity
21,QVQLVESGGGLVQAGGSLRLSCAASGSTLRYYAMGWYRQAPGKEREMVADITSSGNTNYADSVKGRFTISRDNAKNTVYLQMNSLKPEDTAVYYCAGDSANYQWYLSWQKDDYWGQGTQVTVSS,low polyreactivity
22,QVQLVESGGGLVQAGGSLRLSCAASGSTLSIYAMGWYRQAPGKERELVAAISSIGGSTYYADSVKGRFTISRDNAKNTVYLQMNSLKPEDTAVYYCAAELYGGYYYWGQGTQVTVSS,high polyreactivity

row,Sequence,polyreactivity (PSR sort gate)
1,QVQLVESGGGLVQAGGSLRLSCAASGSTLSIYAMGWYRQAPGKERELVATIRWSAGRTSYADSVKGRFTISRDNAMNTVYLQMNSLKPEDTAVYSCNAVRYRYYFYWTGKSYDYWGQGTQVTVSS,high polyreactivity
2,QVQLVESGGGLVQAGGSLRLSCAASGSTLSQNAMGWYRQAPGKEREFVADISGSGDSTYYADSVKGRFTISRDNAKNTVYLQMNSLKPEDTAVYYCATPSPHVGLKWEYDYWGQVTQVTVSS,low polyreactivity
3,QVQLVESGGGLVQAGGSLRLSCAASGSTLSRYAMGWYRQAPGKERELVATITRRGGSTFYADSVKGRFTISRDNAKNTVYLQMNSLKPEDTAVYYCAVGRLFWGQGTQVTVSS,low polyreactivity
4,QVQLVESGGGLVQAGGSLRLSCAASGSTLSSNAMGWYRQAPGKERELVAAINRRGGTYYADSVKGRFTISRDNAKNTVYLQMNSLKPEDTAVYYCAAASPYHEYDYWGQGTQVTVSS,low polyreactivity
5,QVQLVESGGGLVQAGGSLRLSCAASGSTLSVYAMGWYRQAPGKERELVAVISRSGGSTYYADSVKGRFTISRDNAKNTVYLQMNSLKPEDTAVYYCAARGRRTGDYDYWGQGTQVTVSS,high polyreactivity
6,QVQLVESGGGLVQAGGSLRLSCAASGSTLTWNAMGWYRQAPGKERELVATISYSGSSTYYADSVKGRFTISRDNAKNSVYLQMFSLKPEDTAGYYCNAQELAYGHGFDSWGLGTQVTVSS,low polyreactivity
7,QVQLVESGGGLVQAGGSLRLSCAASGSTLVDYAMGWYRQAPGKERELVAAISASGGTTYYADSVKGRFTISRDNAKNTVYLQMNSLKPEDTAVYYCAKYHYYYFPYDYWGQGTQVTVSS,low polyreactivity
8,QVQLVESGGGLVQAGGSLRLSCAASGSTLVPNAMGWYRQAPGKERELVATISFSSGRTYYADSVKGRFTISRDNAKNTVYLQMNSLKPEDTAVYYCNARSFGPTESRYDYWGQGTQVTVSS,high polyreactivity
9,QVQLVESGGGLVQAGGSLRLSCAASGSTLVSNAMGGYRQAAGKERELVAAITSGGSTYYADSVKGRFTISRDNAKNTVYLQMNSRKPEDTAVYYCNADRTRGYQRYDYWGQGTQVTVSS,high polyreactivity
10,QVQLVESGGGLVQAGGSLRLSCAASGSTLVSYAMGWYRQSPGKERELVATISWRGGSTYYADSVKGRFTISRDNAKNTVYLQMNSLKPEDTAVYYCAADLWHSQYYYGYEYWGQGTQVTVSS,low polyreactivity
11,QVQLVESGGGLVQAGGSLRLSCAASGSTLVTHAMGWYRQAPGKERELVAGISRSGGSTYYADSVKGRFTISRDNAKNTVYLQMNSLKPEDTAVYYCAARNYRYLYRMEYWGQGTQVTVSS,high polyreactivity
12,QVQLVESGGGLVQAGGSLRLSCAASGSTLVTNAMGWYRQAPGKERELVAAITFSGGTTYYADSVKGRFTISRDNAKNTVYLQMNSLKPEDTAVYYCAAEIWLEYVGYDYWGQGTQVTVSS,high polyreactivity
13,QVQLVESGGGLVQAGGSLRLSCAASGSTLVTNAMGWYRQAPGKERELVAAITFSGGTTYYADSVTGRFTISRDNAKNTVYVQMNSLKPEDTAVYYCAAEIWLEYVGYDYWGQGTQVTVSS,high polyreactivity
14,QVQLVESGGGLVQAGGSLRLSCAASGSTLVTYAMGWYRQAPGKERELVAAISWRGGSTYYADSVKGRFTISRDNAKNTVELQMNSLKPEDTAVYYCNKLRAYKESETYYYWGQGTQVTVSS,low polyreactivity
15,QVQLVESGGGLVQAGGSLRLSCAASGSTLWSNTMGWYRQAPGKERELVDAISSGGGSTYADSVKGRFTISRDNAKNTVYLQMNSLKPEDTAVYYCAASAYYYRHSSWHRRDYWGQGTQVTVSS,high polyreactivity
16,QVQLVESGGGLVQAGGSLRLSCAASGSTLWTYAMGWYRQAPGKERELVAAISGGGGSTYYADSVKGRFTISRDNAKNTVYLQMNSLKPEDTAVYYCAAVTWVGWGQRRRDYWGHGTQVTVSS,high polyreactivity
17,QVQLVESGGGLVQAGGSLRLSCAASGSTLWVYAMGWYRQAPGKERELVAAITQSTGDTHYADSVKGRFTISRDNAKNTVYLQMNSLKPEDTAVYYCAADSYLSVYDPYGYWGQGTQVTVSS,low polyreactivity
18,QVQLVESGGGLVQAGGSLRLSCAASGSTLYGYAMGWYRQAPGKVRELVAAISSRAVRTYYADSVKGRFTISRDNAKNTVYLHMNSLKPEDTAVYYCAAKRSYAYEYWGQGTQVTVSS,high polyreactivity
19,QVQLVESGGGLVQAGGSLRLSCAASGSTLYKYAMGWYRQSPGKERELVAAISWSGSSTYYADSVKGRFTISRDNAKNTVYLQMNSLKPVDTAVYYCAAYPRPYIGYTDVYVWYEFDYWGQGTQVTVSS,low polyreactivity
20,QVQLVESGGGLVQAGGSLRLSCAASGSTLYNNAMGWYRQAPGKERELVAAITRRGGSTYYADSVKGRFTISRDNAKNTVYLQMNSLNPEDTAVYFCAADDSRYASGQFQEEYDYWGLGTQVTVSS,low polyreactivity
21,QVQLVESGGGLVQAGGSLRLSCAASGSTLYRYAMGWYRQAPGKERELVAAISSSGGSTYYADSVKGRFTISRDNAKNTVYLQMNSLKPEDTAVYYCAATSSFYFILYDYWGQGTQVTVSS,high polyreactivity
